Starred links: 1 amine or outer side, 2 acyl side, 3 side chain; linkers in the order of their positions; H or OH if unused. Non-standard residues stand in square brackets, D forms with d. Ala(piperidin-4-yl) = O=C([C@H](CC1CCN([*:3])CC1)N[*:1])[*:2]; hArg = N=C(N)NCCCC[C@H](N)C(=O)O; 3Pal = N[C@@H](Cc1cccnc1)C(=O)O; 4Pal = N[C@@H](Cc1ccncc1)C(=O)O; Cha = N[C@@H](CC1CCCCC1)C(=O)O; Cit = NC(=O)NCCC[C@H](N)C(=O)O; hSer = N[C@@H](CCO)C(=O)O; Nle = CCCC[C@H](N)C(=O)O; Aib = CC(C)(N)C(=O)O
Experiments:
human Y2 receptor [1] = molecular target: T1, human Y2 receptor (Homo sapiens, UniProt P49146); assay: Human Y2 Receptor G Protein Binding Assay (GBA), [35S]GTPγS; format: biochemical; settings: EC50 of test compound/EC50 of PYY(3-36) (PYY3-36 taken as 1), hY2R/CHO membrane fraction
T1 construct: expressed in transfected cells; membrane fraction
T1 sequence (P49146 1-381): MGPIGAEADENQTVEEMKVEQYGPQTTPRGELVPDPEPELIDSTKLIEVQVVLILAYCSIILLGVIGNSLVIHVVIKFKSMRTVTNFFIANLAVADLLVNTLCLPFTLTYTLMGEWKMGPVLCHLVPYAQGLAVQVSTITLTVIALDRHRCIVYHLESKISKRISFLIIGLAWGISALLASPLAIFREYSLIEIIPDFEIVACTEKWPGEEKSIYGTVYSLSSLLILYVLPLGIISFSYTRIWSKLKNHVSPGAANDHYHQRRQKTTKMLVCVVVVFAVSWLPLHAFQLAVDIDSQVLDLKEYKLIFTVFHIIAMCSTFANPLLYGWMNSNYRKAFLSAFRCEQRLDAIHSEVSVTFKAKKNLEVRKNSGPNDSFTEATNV
Method in brief: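 Agonism measured as [35S]GTPγS binding, read by GF/C filtration and scintillation counting after 120 min at room temperature, using human Y2 membranes at 1 μg protein/mL in pH 7.4 Tris/MgCl2/NaCl/GDP buffer. Compound serially diluted 100 μM–1 nM; EC50 normalized to PYY(3-36) (ratio = compound/PYY).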

human Y2 receptor [2] = molecular target: T1, human Y2 receptor; assay: Receptor Binding Assay (RBA) for Human Y2, [125I]-PYY displacement on hY2R/CHO membrane fraction; settings: IC50 of test compound/IC50 of PYY(3-36) (PYY(3-36) taken as 1)
Method in brief: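 hY2R stably expressed in CHO/dhfr− cells; membrane fraction prepared from cells disrupted in 10 mM NaHCO3, 5 mM EDTA buffer with protease inhibitors. Binding read as displacement of [125I]-PYY.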

Row | GBA EC50 Ratio (human Y2 receptor [1]) | RBA IC50 Ratio (human Y2 receptor [2]) | Substance
1 | 1.2 | 3.3 | Ac-[D-Pro24, Pya(3)26, Cha27,28,36, Aib31]-PYY(23-36) (Ac-S[dP]R[3Pal][Cha][Cha]NL[Aib]TRQR[Cha]-NH2; SMILES CC(=O)N[C@@H](CO)C(=O)N1CCC[C@@H]1C(=O)N[C@@H](CCCNC(=N)N)C(=O)N[C@@H](Cc1cccnc1)C(=O)N[C@@H](CC1CCCCC1)C(=O)N[C@@H](CC1CCCCC1)C(=O)N[C@@H](CC(N)=O)C(=O)N[C@@H](CC(C)C)C(=O)NC(C)(C)C(=O)N[C@H](C(=O)N[C@@H](CCCNC(=N)N)C(=O)N[C@@H](CCC(N)=O)C(=O)N[C@@H](CCCNC(=N)N)C(=O)N[C@@H](CC1CCCCC1)C(N)=O)[C@@H](C)O) [compound No. 148]
2 | 11 | 17 | Ac-[D-Pro24, Pya(4)26, Ala(4Pip)27, Aib28,31, Lys30, Cha36]-PYY(23-36) [compound No. 308] (Ac-S[dP]R[4Pal][Ala(piperidin-4-yl)][Aib]NK[Aib]TRQR[Cha]-NH2; SMILES CC(=O)N[C@@H](CO)C(=O)N1CCC[C@@H]1C(=O)N[C@@H](CCCNC(=N)N)C(=O)N[C@@H](Cc1ccncc1)C(=O)N[C@@H](CC1CCNCC1)C(=O)NC(C)(C)C(=O)N[C@@H](CC(N)=O)C(=O)N[C@@H](CCCCN)C(=O)NC(C)(C)C(=O)N[C@H](C(=O)N[C@@H](CCCNC(=N)N)C(=O)N[C@@H](CCC(N)=O)C(=O)N[C@@H](CCCNC(=N)N)C(=O)N[C@@H](CC1CCCCC1)C(N)=O)[C@@H](C)O)
3 | 3.9 | 3.8 | Ac-[D-Pro24, Pya(4)26, Ala(4Pip)27, Aib28,31, Lys30, Cha36]-PYY(23-36) [compound No. 309] (Ac-S[dP]R[4Pal][Ala(piperidin-4-yl)][Aib]NK[Aib]TRQR[Cha]-NH2; SMILES CC(=O)N[C@@H](CO)C(=O)N1CCC[C@@H]1C(=O)N[C@@H](CCCNC(=N)N)C(=O)N[C@@H](Cc1ccncc1)C(=O)N[C@@H](CC1CCNCC1)C(=O)NC(C)(C)C(=O)N[C@@H](CC(N)=O)C(=O)N[C@@H](CCCCN)C(=O)NC(C)(C)C(=O)N[C@H](C(=O)N[C@@H](CCCNC(=N)N)C(=O)N[C@@H](CCC(N)=O)C(=O)N[C@@H](CCCNC(=N)N)C(=O)N[C@@H](CC1CCCCC1)C(N)=O)[C@@H](C)O)
4 | 1.8 | 1.1 | Ac-[D-Pro24, Pya(4)26, Cha27,36, Aib28,31, Arg30]-PYY(23-36) (Ac-S[dP]R[4Pal][Cha][Aib]NR[Aib]TRQR[Cha]-NH2; SMILES CC(=O)N[C@@H](CO)C(=O)N1CCC[C@@H]1C(=O)N[C@@H](CCCNC(=N)N)C(=O)N[C@@H](Cc1ccncc1)C(=O)N[C@@H](CC1CCCCC1)C(=O)NC(C)(C)C(=O)N[C@@H](CC(N)=O)C(=O)N[C@@H](CCCNC(=N)N)C(=O)NC(C)(C)C(=O)N[C@H](C(=O)N[C@@H](CCCNC(=N)N)C(=O)N[C@@H](CCC(N)=O)C(=O)N[C@@H](CCCNC(=N)N)C(=O)N[C@@H](CC1CCCCC1)C(N)=O)[C@@H](C)O) [compound No. 263]
5 | 3.1 | 2.7 | Ac-[D-Pro24, Pya(4)26, Cha27,36, Aib28,31, Cit30]-PYY(23-36) (Ac-S[dP]R[4Pal][Cha][Aib]N[Cit][Aib]TRQR[Cha]-NH2; SMILES CC(=O)N[C@@H](CO)C(=O)N1CCC[C@@H]1C(=O)N[C@@H](CCCNC(=N)N)C(=O)N[C@@H](Cc1ccncc1)C(=O)N[C@@H](CC1CCCCC1)C(=O)NC(C)(C)C(=O)N[C@@H](CC(N)=O)C(=O)N[C@@H](CCCNC(N)=O)C(=O)NC(C)(C)C(=O)N[C@H](C(=O)N[C@@H](CCCNC(=N)N)C(=O)N[C@@H](CCC(N)=O)C(=O)N[C@@H](CCCNC(=N)N)C(=O)N[C@@H](CC1CCCCC1)C(N)=O)[C@@H](C)O) [compound No. 266]
6 | 0.79 | 0.36 | Ac-[D-Pro24, Pya(4)26, Cha27,36, Aib28,31, Har30]-PYY(23-36) (Ac-S[dP]R[4Pal][Cha][Aib]N[hArg][Aib]TRQR[Cha]-NH2; SMILES CC(=O)N[C@@H](CO)C(=O)N1CCC[C@@H]1C(=O)N[C@@H](CCCNC(=N)N)C(=O)N[C@@H](Cc1ccncc1)C(=O)N[C@@H](CC1CCCCC1)C(=O)NC(C)(C)C(=O)N[C@@H](CC(N)=O)C(=O)N[C@@H](CCCCNC(=N)N)C(=O)NC(C)(C)C(=O)N[C@H](C(=O)N[C@@H](CCCNC(=N)N)C(=O)N[C@@H](CCC(N)=O)C(=O)N[C@@H](CCCNC(=N)N)C(=O)N[C@@H](CC1CCCCC1)C(N)=O)[C@@H](C)O) [compound No. 277]
7 | 5.7 | 5.8 | Ac-[D-Pro24, Pya(4)26, Cha27,36, Aib28,31, Hse30]-PYY(23-36) (Ac-S[dP]R[4Pal][Cha][Aib]N[hSer][Aib]TRQR[Cha]-NH2; SMILES CC(=O)N[C@@H](CO)C(=O)N1CCC[C@@H]1C(=O)N[C@@H](CCCNC(=N)N)C(=O)N[C@@H](Cc1ccncc1)C(=O)N[C@@H](CC1CCCCC1)C(=O)NC(C)(C)C(=O)N[C@@H](CC(N)=O)C(=O)N[C@@H](CCO)C(=O)NC(C)(C)C(=O)N[C@H](C(=O)N[C@@H](CCCNC(=N)N)C(=O)N[C@@H](CCC(N)=O)C(=O)N[C@@H](CCCNC(=N)N)C(=O)N[C@@H](CC1CCCCC1)C(N)=O)[C@@H](C)O) [compound No. 265]
8 | 1.7 | 2.3 | Ac-[D-Pro24, Pya(4)26, Cha27,36, Aib28,31, Lys30]-PYY(22-36) (Ac-AS[dP]R[4Pal][Cha][Aib]NK[Aib]TRQR[Cha]-NH2; SMILES CC(=O)N[C@@H](C)C(=O)N[C@@H](CO)C(=O)N1CCC[C@@H]1C(=O)N[C@@H](CCCNC(=N)N)C(=O)N[C@@H](Cc1ccncc1)C(=O)N[C@@H](CC1CCCCC1)C(=O)NC(C)(C)C(=O)N[C@@H](CC(N)=O)C(=O)N[C@@H](CCCCN)C(=O)NC(C)(C)C(=O)N[C@H](C(=O)N[C@@H](CCCNC(=N)N)C(=O)N[C@@H](CCC(N)=O)C(=O)N[C@@H](CCCNC(=N)N)C(=O)N[C@@H](CC1CCCCC1)C(N)=O)[C@@H](C)O) [compound No. 219]
9 | 0.56 | 0.68 | Ac-[D-Pro24, Pya(4)26, Cha27,36, Aib28,31, Lys30]-PYY(24-36) (Ac-[dP]R[4Pal][Cha][Aib]NK[Aib]TRQR[Cha]-NH2; SMILES CC(=O)N1CCC[C@@H]1C(=O)N[C@@H](CCCNC(=N)N)C(=O)N[C@@H](Cc1ccncc1)C(=O)N[C@@H](CC1CCCCC1)C(=O)NC(C)(C)C(=O)N[C@@H](CC(N)=O)C(=O)N[C@@H](CCCCN)C(=O)NC(C)(C)C(=O)N[C@H](C(=O)N[C@@H](CCCNC(=N)N)C(=O)N[C@@H](CCC(N)=O)C(=O)N[C@@H](CCCNC(=N)N)C(=O)N[C@@H](CC1CCCCC1)C(N)=O)[C@@H](C)O) [compound No. 251]
10 | 1.1 | 0.97 | Ac-[D-Pro24, Pya(4)26, Cha27,36, Aib28,31, Lys(Ac)30]-PYY(23-36) [compound No. 278]
11 | 1.3 | 1.0 | Ac-[D-Pro24, Pya(4)26, Cha27,36, Aib28,31, Lys(Hexyl)30]-PYY(23-36) [compound No. 279]
12 | 1.7 | 1.1 | Ac-[D-Pro24, Pya(4)26, Cha27,36, Aib28,31, Lys(Me2)30]-PYY(23-36) [compound No. 264]
13 | 1.4 | 0.96 | Ac-[D-Pro24, Pya(4)26, Cha27,36, Aib28,31, Nle30]-PYY(23-36) (Ac-S[dP]R[4Pal][Cha][Aib]N[Nle][Aib]TRQR[Cha]-NH2; SMILES CCCC[C@H](NC(=O)[C@H](CC(N)=O)NC(=O)C(C)(C)NC(=O)[C@H](CC1CCCCC1)NC(=O)[C@H](Cc1ccncc1)NC(=O)[C@H](CCCNC(=N)N)NC(=O)[C@H]1CCCN1C(=O)[C@H](CO)NC(C)=O)C(=O)NC(C)(C)C(=O)N[C@H](C(=O)N[C@@H](CCCNC(=N)N)C(=O)N[C@@H](CCC(N)=O)C(=O)N[C@@H](CCCNC(=N)N)C(=O)N[C@@H](CC1CCCCC1)C(N)=O)[C@@H](C)O) [compound No. 267]
14 | 0.83 | 1.5 | Ac-[D-Pro24, Pya(4)26, Cha27,36, Aib28,31, Orn30]-PYY(23-36) [compound No. 206]
15 | 2.4 | 2.5 | Ac-[D-Pro24, Pya(4)26, Cha27,36, Aib28,31, Trp30]-PYY(23-36) (Ac-S[dP]R[4Pal][Cha][Aib]NW[Aib]TRQR[Cha]-NH2; SMILES CC(=O)N[C@@H](CO)C(=O)N1CCC[C@@H]1C(=O)N[C@@H](CCCNC(=N)N)C(=O)N[C@@H](Cc1ccncc1)C(=O)N[C@@H](CC1CCCCC1)C(=O)NC(C)(C)C(=O)N[C@@H](CC(N)=O)C(=O)N[C@@H](Cc1c[nH]c2ccccc12)C(=O)NC(C)(C)C(=O)N[C@H](C(=O)N[C@@H](CCCNC(=N)N)C(=O)N[C@@H](CCC(N)=O)C(=O)N[C@@H](CCCNC(=N)N)C(=O)N[C@@H](CC1CCCCC1)C(N)=O)[C@@H](C)O) [compound No. 205]

Source: patent publication US9260500B2, “Peptide and use thereof” (Takeda Pharmaceutical Company Limited, priority 2009, dated 2016)
